These results are taken from patent US20060115897A1.

Assay [1] deals with C3b (UniProt P01024). Kind of assay: cell-based or functional assay.
Assay [2] concerns the target C4b (UniProt P0C0L4). As to the kind of experiment: cell-based or functional assay.

Chain of C4b (P0C0L4 20-1744): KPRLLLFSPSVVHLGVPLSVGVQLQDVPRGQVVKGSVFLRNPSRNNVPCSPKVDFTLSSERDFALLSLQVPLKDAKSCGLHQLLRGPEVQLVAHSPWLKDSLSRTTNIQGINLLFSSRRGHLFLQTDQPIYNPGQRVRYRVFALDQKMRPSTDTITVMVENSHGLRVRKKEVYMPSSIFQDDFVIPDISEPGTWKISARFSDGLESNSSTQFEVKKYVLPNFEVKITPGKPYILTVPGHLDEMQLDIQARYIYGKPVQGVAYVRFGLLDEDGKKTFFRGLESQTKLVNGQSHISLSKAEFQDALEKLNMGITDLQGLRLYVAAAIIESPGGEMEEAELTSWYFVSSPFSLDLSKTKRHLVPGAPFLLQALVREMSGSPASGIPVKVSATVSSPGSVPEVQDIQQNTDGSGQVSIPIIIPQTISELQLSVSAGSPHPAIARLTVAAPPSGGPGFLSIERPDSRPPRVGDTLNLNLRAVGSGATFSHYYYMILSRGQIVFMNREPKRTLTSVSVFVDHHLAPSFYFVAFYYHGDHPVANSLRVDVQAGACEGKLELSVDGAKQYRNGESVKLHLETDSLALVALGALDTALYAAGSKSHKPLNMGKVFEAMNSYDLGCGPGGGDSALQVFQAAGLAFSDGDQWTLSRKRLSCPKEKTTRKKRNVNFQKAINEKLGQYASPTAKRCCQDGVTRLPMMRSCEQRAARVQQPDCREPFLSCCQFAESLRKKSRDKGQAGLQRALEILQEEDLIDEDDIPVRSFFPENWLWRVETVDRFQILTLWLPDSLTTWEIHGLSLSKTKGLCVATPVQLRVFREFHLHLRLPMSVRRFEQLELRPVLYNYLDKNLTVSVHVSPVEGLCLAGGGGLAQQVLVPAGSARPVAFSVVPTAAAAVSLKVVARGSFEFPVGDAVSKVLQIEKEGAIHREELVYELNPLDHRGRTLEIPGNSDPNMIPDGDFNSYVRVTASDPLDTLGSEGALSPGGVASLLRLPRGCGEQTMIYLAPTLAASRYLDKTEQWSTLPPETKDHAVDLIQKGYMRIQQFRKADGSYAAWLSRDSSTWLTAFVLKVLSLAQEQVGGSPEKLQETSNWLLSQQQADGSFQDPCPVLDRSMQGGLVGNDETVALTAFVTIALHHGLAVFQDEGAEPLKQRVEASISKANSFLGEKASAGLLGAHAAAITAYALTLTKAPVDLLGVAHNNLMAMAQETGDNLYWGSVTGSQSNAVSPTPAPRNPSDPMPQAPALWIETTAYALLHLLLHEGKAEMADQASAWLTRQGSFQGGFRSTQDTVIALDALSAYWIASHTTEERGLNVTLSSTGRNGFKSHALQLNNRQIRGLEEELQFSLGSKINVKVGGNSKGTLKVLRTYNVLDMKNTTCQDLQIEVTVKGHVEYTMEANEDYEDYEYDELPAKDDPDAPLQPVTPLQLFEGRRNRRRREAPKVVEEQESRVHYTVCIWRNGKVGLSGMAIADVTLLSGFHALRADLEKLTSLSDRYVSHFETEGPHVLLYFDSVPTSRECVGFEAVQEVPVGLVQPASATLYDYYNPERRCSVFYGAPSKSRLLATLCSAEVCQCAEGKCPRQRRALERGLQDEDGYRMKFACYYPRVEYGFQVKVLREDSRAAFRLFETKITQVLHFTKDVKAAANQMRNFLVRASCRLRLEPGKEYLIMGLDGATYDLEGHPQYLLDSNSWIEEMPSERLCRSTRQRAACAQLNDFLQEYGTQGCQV
Chain of C3b (P01024 749-1663 limits assumed, chain 1 of 2): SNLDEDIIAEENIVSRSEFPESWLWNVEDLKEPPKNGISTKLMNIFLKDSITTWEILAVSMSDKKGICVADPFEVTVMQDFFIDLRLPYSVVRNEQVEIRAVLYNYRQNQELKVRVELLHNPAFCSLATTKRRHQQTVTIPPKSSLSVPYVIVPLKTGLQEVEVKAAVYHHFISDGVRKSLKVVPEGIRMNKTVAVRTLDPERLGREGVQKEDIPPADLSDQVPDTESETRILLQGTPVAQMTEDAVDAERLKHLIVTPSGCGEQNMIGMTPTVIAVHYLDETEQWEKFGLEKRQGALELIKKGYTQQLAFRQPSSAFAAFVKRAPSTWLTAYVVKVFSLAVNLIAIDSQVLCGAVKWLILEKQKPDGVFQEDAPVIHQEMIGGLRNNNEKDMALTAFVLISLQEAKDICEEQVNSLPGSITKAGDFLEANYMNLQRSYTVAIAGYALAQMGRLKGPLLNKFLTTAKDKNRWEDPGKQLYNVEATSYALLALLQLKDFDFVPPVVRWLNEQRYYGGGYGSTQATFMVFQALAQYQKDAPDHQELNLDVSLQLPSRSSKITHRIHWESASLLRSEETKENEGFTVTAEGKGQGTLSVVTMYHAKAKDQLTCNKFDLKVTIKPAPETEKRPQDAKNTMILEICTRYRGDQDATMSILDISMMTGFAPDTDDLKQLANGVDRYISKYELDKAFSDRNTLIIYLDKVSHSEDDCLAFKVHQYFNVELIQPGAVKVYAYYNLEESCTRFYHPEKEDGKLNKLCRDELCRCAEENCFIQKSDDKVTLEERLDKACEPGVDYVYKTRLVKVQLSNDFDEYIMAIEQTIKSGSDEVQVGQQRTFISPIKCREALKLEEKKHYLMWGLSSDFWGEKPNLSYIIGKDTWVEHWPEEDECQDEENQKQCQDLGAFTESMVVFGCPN
Chain of C3b (P01024 23-667 limits assumed, chain 2 of 2): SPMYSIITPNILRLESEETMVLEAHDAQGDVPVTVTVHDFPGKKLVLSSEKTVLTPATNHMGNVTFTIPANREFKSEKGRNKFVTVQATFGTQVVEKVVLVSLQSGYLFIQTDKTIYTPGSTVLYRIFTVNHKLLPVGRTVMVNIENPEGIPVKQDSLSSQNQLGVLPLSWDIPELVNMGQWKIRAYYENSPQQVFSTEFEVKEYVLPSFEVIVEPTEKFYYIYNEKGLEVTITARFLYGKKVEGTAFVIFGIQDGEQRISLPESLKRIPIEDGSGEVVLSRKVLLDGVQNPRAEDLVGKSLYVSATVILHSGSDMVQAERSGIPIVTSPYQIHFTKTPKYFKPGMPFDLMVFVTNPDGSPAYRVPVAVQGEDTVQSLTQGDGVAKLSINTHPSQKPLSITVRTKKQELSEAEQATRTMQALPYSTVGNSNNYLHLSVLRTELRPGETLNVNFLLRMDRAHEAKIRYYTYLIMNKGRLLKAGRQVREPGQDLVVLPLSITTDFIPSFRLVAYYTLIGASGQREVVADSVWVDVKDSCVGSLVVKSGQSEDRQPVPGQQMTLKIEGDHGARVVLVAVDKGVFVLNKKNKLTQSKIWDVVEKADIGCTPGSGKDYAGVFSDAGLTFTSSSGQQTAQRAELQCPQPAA

As to “histidine-tagged Smallpox Inhibitor of Complement Enzymes (SPICEhis) (from UniProt P68638 20-263)”, in assay [1], the efficiency as cofactor in the degradation of C3b, against VCPhis turned out to be 100 fold. The same substance yielded a speed as cofactor in the degradation of C4b, against VCPhis in assay [2] of 6 fold.
